One data set has as its target T1, SKN-1 peptides (UniProt P34707).
T1 sequence: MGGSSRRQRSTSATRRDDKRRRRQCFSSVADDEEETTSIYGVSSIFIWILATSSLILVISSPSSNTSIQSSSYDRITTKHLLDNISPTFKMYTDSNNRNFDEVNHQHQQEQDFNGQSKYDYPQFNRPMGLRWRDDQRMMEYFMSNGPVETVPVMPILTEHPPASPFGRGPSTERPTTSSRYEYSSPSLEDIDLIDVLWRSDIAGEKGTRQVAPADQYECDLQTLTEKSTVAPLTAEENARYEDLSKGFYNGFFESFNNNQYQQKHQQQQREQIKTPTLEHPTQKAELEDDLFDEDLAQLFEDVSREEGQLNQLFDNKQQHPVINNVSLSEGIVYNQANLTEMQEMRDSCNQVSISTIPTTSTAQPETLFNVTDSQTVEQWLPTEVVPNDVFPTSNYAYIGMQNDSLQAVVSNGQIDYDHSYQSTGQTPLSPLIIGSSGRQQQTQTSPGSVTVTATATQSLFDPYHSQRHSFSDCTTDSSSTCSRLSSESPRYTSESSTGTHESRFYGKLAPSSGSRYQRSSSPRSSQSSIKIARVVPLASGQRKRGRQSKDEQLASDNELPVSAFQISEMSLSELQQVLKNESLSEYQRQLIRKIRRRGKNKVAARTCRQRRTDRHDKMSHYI

The target of the next data set is T2, SKN-1 full-length (Caenorhabditis elegans, UniProt P34707 SEQ:1-533).
T2 sequence: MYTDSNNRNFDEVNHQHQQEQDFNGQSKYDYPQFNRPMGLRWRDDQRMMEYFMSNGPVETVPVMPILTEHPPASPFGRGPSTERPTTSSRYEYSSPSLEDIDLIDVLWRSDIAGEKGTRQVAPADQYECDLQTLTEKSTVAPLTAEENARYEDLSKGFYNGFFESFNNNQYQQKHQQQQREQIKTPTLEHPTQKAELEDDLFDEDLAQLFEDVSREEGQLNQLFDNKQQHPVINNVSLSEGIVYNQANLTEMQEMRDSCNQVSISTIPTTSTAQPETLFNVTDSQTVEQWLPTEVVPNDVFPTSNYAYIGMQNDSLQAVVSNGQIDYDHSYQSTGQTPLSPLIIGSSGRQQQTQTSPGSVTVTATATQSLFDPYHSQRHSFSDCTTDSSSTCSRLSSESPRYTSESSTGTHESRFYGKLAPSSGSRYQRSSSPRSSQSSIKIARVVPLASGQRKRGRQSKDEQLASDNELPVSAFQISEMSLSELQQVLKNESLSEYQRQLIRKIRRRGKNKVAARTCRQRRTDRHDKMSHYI
As to the kind of experiment: EMSA; no binding to mutant probe; as unlabeled competitor much less effective than wild type. The following applies: label: 32P. The protocol: (§1) FIGS. 4A and 4B: Specific binding of SKN-1 to an essential gcs-1 promoter sequence. 4A: Binding of full-length SKN-1 to site 3 within the gcs-1 composite element, assayed by EMSA. Lanes 2-5 show binding of increasing amounts of in vitro translated SKN-1 protein (0 μl, 0.25 μl, 0.5 μl, 3 μl translation lysate; indicated by a triangle) to the wild type site. […] A background species is labeled. Lanes 6-10 show the same assay performed with the mutant probe. In lanes 11-20, SKN-1-DNA binding is assayed in the presence of the indicated unlabelled competitor oligonucleotides. Lanes 12-15 and 17-20 correspond to addition of a 20-, 50-, 150-, and 400-fold molar excess of competitor over the labeled wild-type DNA. 4B: The in vitro translated SKN-1 DNA binding domain (FIG. 1B) binds specifically to the gcs-1 composite element. Binding was assayed as in 4A.
(§2) Remarkably, SKN-1 binding site 3 is located within a 42 bp gcs-1 promoter element that is similar to a composite motif through which SKN-1 activates med-1 and med-2 in the embryo (FIGS. 1A and 3C) (Maduro et al. Mol. Cell 7: 475-485 (2001)). The conservation between these gcs-1 and med promoter elements is particularly striking because they are located at identical distances from their respective translation starts, but contain different numbers of SKN-1 sites (FIG. 3C). […]
For orientation: In EMSA bound probe runs differently from free probe, usually more slowly.

Data set [1] deals with T3, SKN-1 DNA binding domain (SKN domain, 85 aa) (Caenorhabditis elegans, UniProt P34707 SEQ:1-85).
T3 sequence: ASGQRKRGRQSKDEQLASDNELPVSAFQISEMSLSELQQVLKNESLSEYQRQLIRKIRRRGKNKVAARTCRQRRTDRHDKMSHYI
The data set is described as above. To be noted: label: 32P. The protocol: as §1, §2

As for GSK-3, in the data set with SKN-1 peptides, the “phosphorylation of SKN-1 by GSK-3” value is “GSK-3 then phosphorylates SKN-1 sequentially in the amino-terminal direction” and the “phosphorylation of SKN-1 peptides by GSK-3” value is listed as “Phosphorylation by GSK-3 required priming phosphorylation at a serine or threonine residue located four positions carboxyl-terminal to the GSK-3 site”.

B1: gcs-1 composite element, site 3 mutant (dsDNA)
DNA 1: ACTTTCTGCAGATGAGATTTAATGTTTCCTTTTGATTTTCT
DNA 2: AGAAAATCAAAAGGAAACATTAAATCTCATCTGCAGAAAGT
Take B1: the binding result (with SKN-1 full-length; in data set [1]) was “no binding” throughout.

These data come from patent US20080141385, “Skn-1 and Gsk-3 Genes and Proteins” (published 2008).
